This is an account of results in patent US20020076795A1, “Novel TRF1 binding protein, methods of use thereof” (published 2002).

The target in series [1] is amino-terminal acidic domain of TRF1 fused to LexA (LexAd68-C) (human) (UniProt P54274). The series is described as follows: cell-based or functional assay.
Series [2] addresses T1, FLAG-tankyrase (encoding amino acids 2-1327 of SEQ ID NO:2) (human, UniProt O95271 2-1327).
T1 construct: Expressed by transient transfection in HeLaI cells; also called exogenous tankyrase; transfected tankyrase
T1 sequence: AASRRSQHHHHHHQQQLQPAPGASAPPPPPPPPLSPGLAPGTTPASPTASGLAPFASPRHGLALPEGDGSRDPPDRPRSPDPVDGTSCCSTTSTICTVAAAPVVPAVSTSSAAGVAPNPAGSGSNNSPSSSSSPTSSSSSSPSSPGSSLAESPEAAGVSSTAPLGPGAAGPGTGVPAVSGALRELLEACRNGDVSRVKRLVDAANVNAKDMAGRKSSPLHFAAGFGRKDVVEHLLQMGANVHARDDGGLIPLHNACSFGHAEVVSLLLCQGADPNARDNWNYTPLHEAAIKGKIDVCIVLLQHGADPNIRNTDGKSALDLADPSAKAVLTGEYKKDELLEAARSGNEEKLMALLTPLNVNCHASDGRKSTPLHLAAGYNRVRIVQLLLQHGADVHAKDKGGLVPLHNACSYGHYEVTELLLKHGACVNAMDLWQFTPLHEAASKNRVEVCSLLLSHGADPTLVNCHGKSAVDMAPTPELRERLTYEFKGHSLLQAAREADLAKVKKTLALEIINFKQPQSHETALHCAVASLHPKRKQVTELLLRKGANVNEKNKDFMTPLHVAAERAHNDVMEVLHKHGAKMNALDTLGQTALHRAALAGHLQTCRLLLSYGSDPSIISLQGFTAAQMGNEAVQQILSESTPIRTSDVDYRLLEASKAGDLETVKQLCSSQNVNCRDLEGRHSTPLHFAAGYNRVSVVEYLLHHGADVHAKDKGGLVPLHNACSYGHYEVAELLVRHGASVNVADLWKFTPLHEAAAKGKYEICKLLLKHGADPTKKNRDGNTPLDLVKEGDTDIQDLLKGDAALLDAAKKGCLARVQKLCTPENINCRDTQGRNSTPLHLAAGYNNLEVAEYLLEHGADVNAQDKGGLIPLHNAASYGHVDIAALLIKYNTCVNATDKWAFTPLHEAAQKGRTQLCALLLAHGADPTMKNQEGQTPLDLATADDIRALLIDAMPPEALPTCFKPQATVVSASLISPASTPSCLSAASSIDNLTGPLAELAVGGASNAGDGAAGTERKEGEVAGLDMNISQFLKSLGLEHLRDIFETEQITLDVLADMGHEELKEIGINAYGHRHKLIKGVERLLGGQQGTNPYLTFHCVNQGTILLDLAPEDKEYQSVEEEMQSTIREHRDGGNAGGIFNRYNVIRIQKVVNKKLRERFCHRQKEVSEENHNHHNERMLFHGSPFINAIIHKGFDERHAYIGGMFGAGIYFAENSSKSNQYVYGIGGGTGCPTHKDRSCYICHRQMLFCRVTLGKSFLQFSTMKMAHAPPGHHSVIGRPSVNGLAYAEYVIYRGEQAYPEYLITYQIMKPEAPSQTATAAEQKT
The series is described as follows: indirect immunofluorescence of co-transfected HeLaI cells (co-localization, nuclear translocation).

Series [3] addresses T2, GAD-tankyrase hybrid containing 10 internal ANK repeats (9-19) (TR1L-12) (human, UniProt O95271 436-797).
T2 construct: the construct holds only ANK repeats 9-19; also called 10-ANK repeat domain of tankyrase
T2 sequence: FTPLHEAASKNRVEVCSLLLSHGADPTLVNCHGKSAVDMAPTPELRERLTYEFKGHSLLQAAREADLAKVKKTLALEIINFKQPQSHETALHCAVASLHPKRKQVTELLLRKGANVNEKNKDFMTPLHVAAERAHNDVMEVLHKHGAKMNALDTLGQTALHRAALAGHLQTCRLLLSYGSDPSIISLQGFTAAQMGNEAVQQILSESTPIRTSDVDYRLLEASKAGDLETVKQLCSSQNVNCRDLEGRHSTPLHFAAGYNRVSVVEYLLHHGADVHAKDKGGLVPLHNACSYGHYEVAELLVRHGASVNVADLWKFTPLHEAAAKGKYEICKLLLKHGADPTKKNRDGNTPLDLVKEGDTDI
The series is described as follows: yeast two-hybrid, β-galactosidase; LexA without TRF1 sequences. As for the experimental part:
TR1L-4 and TR1L-12 were isolated from a human liver two-hybrid cDNA library (Clontech) created in pGad10. The library was screened with human full length TRF1 cDNA fused to LexA (LexA-TRF1) [Bianchi et al., EMBO J., 16:1785-1794 (1997)] in the yeast strain L40 as described [Hollenberg et al., Mol. Cell Biol., 15:3813-3822 (1995)]. Two-hybrid analysis was performed as described by Bianchi et al. [EMBO J., 16:1785-1794 (1997)]. β-galactosidase assays for the two-hybrid analysis was performed as described by Bianchi et al. [EMBO J., 16:1785-1794 (1997)].
Two-hybrid analysis was used to determine the interacting domains between tankyrase and TRF1. […] To determine the tankyrase-interacting domain in TRF1, two-hybrid analysis was performed with the 10-ANK repeat domain of TR1L-12 fused to the GAL4 activation domain (GAD-tankyrase) and full-length and deletion constructs of TRF1 fused to LexA. […] As observed previously, the amino-terminal acidic domain of TFR1 (LexAd68-C) activated transcription even in the absence of tankyrase sequences in the GAD fusion partner. […] Deletion of the acidic domain of TRF1 (ΔN66-LexA) abolished the interaction with GAD-tankyrase.

In series [4] the target is T3, baculovirus-derived TRF1, P54274.
T3 chain: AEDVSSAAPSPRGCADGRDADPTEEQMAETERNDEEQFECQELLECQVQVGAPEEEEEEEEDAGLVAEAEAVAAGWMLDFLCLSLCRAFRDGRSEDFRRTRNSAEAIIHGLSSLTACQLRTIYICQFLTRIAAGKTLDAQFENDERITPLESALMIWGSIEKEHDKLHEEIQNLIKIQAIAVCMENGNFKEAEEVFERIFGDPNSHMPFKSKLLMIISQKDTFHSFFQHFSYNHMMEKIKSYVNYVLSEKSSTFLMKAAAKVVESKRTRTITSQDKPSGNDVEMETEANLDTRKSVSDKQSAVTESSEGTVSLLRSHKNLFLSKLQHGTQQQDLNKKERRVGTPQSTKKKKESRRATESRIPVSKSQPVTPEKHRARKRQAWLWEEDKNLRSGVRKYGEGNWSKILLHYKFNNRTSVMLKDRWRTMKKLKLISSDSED

Series [5] concerns the target T4, TRF2 (telomeric repeat binding factor 2), Q15554.
T4 chain: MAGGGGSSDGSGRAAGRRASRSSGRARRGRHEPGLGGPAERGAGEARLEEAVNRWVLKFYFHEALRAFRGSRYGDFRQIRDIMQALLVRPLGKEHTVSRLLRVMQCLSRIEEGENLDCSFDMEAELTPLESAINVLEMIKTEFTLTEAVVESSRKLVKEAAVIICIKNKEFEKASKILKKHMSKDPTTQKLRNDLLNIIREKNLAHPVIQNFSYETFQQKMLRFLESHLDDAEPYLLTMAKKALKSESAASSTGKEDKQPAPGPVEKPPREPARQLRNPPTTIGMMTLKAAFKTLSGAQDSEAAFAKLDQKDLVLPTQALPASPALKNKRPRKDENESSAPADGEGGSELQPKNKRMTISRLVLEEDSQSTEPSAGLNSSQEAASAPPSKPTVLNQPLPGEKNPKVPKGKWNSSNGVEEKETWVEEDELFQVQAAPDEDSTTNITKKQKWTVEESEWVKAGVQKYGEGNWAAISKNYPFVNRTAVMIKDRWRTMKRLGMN

In turn, “GAD-tankyrase hybrid containing 10 internal ANK repeats (9-19) (TR1L-12) (from UniProt O95271 436-797)” showed a β-galactosidase levels (two-hybrid) in series [1] of 50.4 units.

B1: human TRF1 (telomeric repeat binding factor 1), expressed from pcDNA3-hTRF1 in HeLaI cells (other, UniProt P54274 1-439, looked up)
chain: MAEDVSSAAPSPRGCADGRDADPTEEQMAETERNDEEQFECQELLECQVQVGAPEEEEEEEEDAGLVAEAEAVAAGWMLDFLCLSLCRAFRDGRSEDFRRTRNSAEAIIHGLSSLTACQLRTIYICQFLTRIAAGKTLDAQFENDERITPLESALMIWGSIEKEHDKLHEEIQNLIKIQAIAVCMENGNFKEAEEVFERIFGDPNSHMPFKSKLLMIISQKDTFHSFFQHFSYNHMMEKIKSYVNYVLSEKSSTFLMKAAAKVVESKRTRTITSQDKPSGNDVEMETEANLDTRKSVSDKQSAVTESSEGTVSLLRSHKNLFLSKLQHGTQQQDLNKKERRVGTPQSTKKKKESRRATESRIPVSKSQPVTPEKHRARKRQAWLWEEDKNLRSGVRKYGEGNWSKILLHYKFNNRTSVMLKDRWRTMKKLKLISSDSED
B1: in series [2], the binding result is on record as “binds”.

B2: LexA (alone) (other, UniProt P0A7C2 1-202, looked up)
chain: MKALTARQQEVFDLIRDHISQTGMPPTRAEIAQRLGFRSPNAAEEHLKALARKGVIEIVSGASRGIRLLQEEEEGLPLVGRVAAGEPLLAQQHIEGHYQVDPSLFKPNADFLLRVSGMSMKDIGIMDGDLLAVHKTQDVRNGQVVVARIDDEVTVKRLKKQGNKVELLPENSEFKPIVVDLRQQSFTIEGLAVGVIRNGDWL
notes: Control
In the case of B2, the binding result in series [3] was “no binding”.

B3: baculovirus-derived N-terminally [His]6-tagged fusion protein of human tankyrase (protein)
chain: MAASRRSQHHHHHHQQQLQPAPGASAPPPPPPPPLSPGLAPGTTPASPTASGLAPFASPRHGLALPEGDGSRDPPDRPRSPDPVDGTSCCSTTSTICTVAAAPVVPAVSTSSAAGVAPNPAGSGSNNSPSSSSSPTSSSSSSPSSPGSSLAESPEAAGVSSTAPLGPGAAGPGTGVPAVSGALRELLEACRNGDVSRVKRLVDAANVNAKDMAGRKSSPLHFAAGFGRKDVVEHLLQMGANVHARDDGGLIPLHNACSFGHAEVVSLLLCQGADPNARDNWNYTPLHEAAIKGKIDVCIVLLQHGADPNIRNTDGKSALDLADPSAKAVLTGEYKKDELLEAARSGNEEKLMALLTPLNVNCHASDGRKSTPLHLAAGYNRVRIVQLLLQHGADVHAKDKGGLVPLHNACSYGHYEVTELLLKHGACVNAMDLWQFTPLHEAASKNRVEVCSLLLSHGADPTLVNCHGKSAVDMAPTPELRERLTYEFKGHSLLQAAREADLAKVKKTLALEIINFKQPQSHETALHCAVASLHPKRKQVTELLLRKGANVNEKNKDFMTPLHVAAERAHNDVMEVLHKHGAKMNALDTLGQTALHRAALAGHLQTCRLLLSYGSDPSIISLQGFTAAQMGNEAVQQILSESTPIRTSDVDYRLLEASKAGDLETVKQLCSSQNVNCRDLEGRHSTPLHFAAGYNRVSVVEYLLHHGADVHAKDKGGLVPLHNACSYGHYEVAELLVRHGASVNVADLWKFTPLHEAAAKGKYEICKLLLKHGADPTKKNRDGNTPLDLVKEGDTDIQDLLKGDAALLDAAKKGCLARVQKLCTPENINCRDTQGRNSTPLHLAAGYNNLEVAEYLLEHGADVNAQDKGGLIPLHNAASYGHVDIAALLIKYNTCVNATDKWAFTPLHEAAQKGRTQLCALLLAHGADPTMKNQEGQTPLDLATADDIRALLIDAMPPEALPTCFKPQATVVSASLISPASTPSCLSAASSIDNLTGPLAELAVGGASNAGDGAAGTERKEGEVAGLDMNISQFLKSLGLEHLRDIFETEQITLDVLADMGHEELKEIGINAYGHRHKLIKGVERLLGGQQGTNPYLTFHCVNQGTILLDLAPEDKEYQSVEEEMQSTIREHRDGGNAGGIFNRYNVIRIQKVVNKKLRERFCHRQKEVSEENHNHHNERMLFHGSPFINAIIHKGFDERHAYIGGMFGAGIYFAENSSKSNQYVYGIGGGTGCPTHKDRSCYICHRQMLFCRVTLGKSFLQFSTMKMAHAPPGHHSVIGRPSVNGLAYAEYVIYRGEQAYPEYLITYQIMKPEAPSQTATAAEQKT
For B3, the “ADP-ribosylation of TRF1 (PARP assay with [32P]NAD+)” value in series [4] is listed as “Tankyrase also has the ability to modify TRF1”. In addition, in series [5], the “ADP-ribosylation (PARP assay)” value is given as “TRF2 is not a substrate for modification in vitro”.
